Test results reported in patent US20140348834A1 (published 2014).
Like-named read-outs stand apart in the source and are kept apart here.

What was measured:
[1] = target: T1, human IL-17A (human, UniProt Q16552 24-155); assay: cell-based or functional assay
T1 sequence (Q16552 24-155 limits assumed): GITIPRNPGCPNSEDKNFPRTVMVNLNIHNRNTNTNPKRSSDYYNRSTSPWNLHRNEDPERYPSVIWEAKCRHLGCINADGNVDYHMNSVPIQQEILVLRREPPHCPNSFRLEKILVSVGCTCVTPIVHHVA

[2] = target: T2, human IL-17A/F (human, UniProt Q16552 24-155; Q96PD4 31-163); assay: cell-based or functional assay
T2 sequence (Q16552 24-155 limits assumed, chain 1 of 2): as the sequence (Q16552 24-155 limits assumed) above
T2 sequence (Q96PD4 31-163 limits assumed, chain 2 of 2): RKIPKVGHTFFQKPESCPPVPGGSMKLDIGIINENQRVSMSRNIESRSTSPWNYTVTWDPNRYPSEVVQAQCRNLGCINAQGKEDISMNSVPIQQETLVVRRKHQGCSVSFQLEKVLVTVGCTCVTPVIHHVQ

[3] = target: T3, cynomolgous monkey (cyno) IL-17A (cynomolgus monkey, UniProt A0A2K5TTB0 24-155); assay: cell-based or functional assay
[4] = target: T4, rat IL-17A (rat, UniProt Q61453 18-150, limits assumed); assay: cell-based or functional assay
T4 sequence (looked up): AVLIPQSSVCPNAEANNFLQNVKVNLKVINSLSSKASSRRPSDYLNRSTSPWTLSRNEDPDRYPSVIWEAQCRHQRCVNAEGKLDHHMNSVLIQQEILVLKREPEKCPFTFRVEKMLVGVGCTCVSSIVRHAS

[5] = target: T5, mouse IL-17A (mouse, UniProt Q62386 26-158, limits assumed); assay: cell-based or functional assay
T5 sequence (looked up): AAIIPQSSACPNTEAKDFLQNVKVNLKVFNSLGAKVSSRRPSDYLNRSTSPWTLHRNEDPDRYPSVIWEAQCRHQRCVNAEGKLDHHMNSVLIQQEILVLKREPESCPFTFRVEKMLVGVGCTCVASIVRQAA

[6] = target: rabbit IL-17A (rabbit); assay: cell-based or functional assay
[7] = target: T1, human IL-17A; assay: ELISA, captured antibody, serially diluted biotin-IL-17 (Example 1.5.1)
[8] = target: T1, human IL-17A; assay: cell-based or functional assay; remark: listed apart in the source
[9] = target: T2, human IL-17A/F; assay: cell-based or functional assay; remark: listed apart in the source
[10] = target: T3, cynomolgous monkey (cyno) IL-17A; assay: cell-based or functional assay; remark: listed apart in the source
[11] = target: T6, human IL-17A (human, UniProt Q16552 24-155); assay: hIL17A ELISA
T6 construct: Recombinant; biotinylated in the ELISA; also called hIL-17; hIL17A
T6 sequence (Q16552 24-155): as the sequence (Q16552 24-155 limits assumed) above
Method: The following protocol is used to characterize the binding of IL-17 antibodies to human IL-17 by enzyme-linked immunosorbent assay (ELISA). […] Coat ELISA plate with 50 μl per well of Goat anti Mouse IgG-Fc at 2 ug/ml, overnight at 4° C. […] Wash plate 3×PBS/Tween. […] Add 50 μl Mab diluted to 1 μg/ml in PBS/0.1% BSA to appropriate wells. Incubate 1 hr at room temperature (RT). […] Wash plate 3× with PBS/Tween. […] Add 50 μl of serial diluted biotin-IL17 (human IL-17, IL-17A/F, cyno IL-17) to appropriate wells. Incubate 1 hr at room temperature (RT). […] Wash plate 3× with PBS/Tween. […] Incubate 1 hr at RT. […] Wash plate 3× with PBS/Tween. […] Stop reaction with 50 μl 2N H₂SO₄. […] Read absorbance at 450 nm.

[12] = target: T6, human IL-17A; assay: cell-based or functional assay; remark: listed apart in the source
[13] = target: T7, cynomolgus monkey IL-17A (cynomolgus monkey, UniProt A0A2K5TTB0 24-155); assay: cell-based or functional assay
[14] = target: T8, rat IL-17A (rat, UniProt Q61453 18-150, limits assumed); assay: cell-based or functional assay; remark: listed apart in the source
T8 sequence (looked up): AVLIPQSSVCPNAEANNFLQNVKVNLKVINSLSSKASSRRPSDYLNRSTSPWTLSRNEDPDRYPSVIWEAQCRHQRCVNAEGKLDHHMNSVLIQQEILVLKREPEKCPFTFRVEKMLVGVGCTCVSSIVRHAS

[15] = target: T6, human IL-17A; assay: SPR (Biacore 3000), antibody captured by anti-Fc, antigen in solution;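 further: purified recombinant IL-17 antigens flowed over captured antibodies in HBS-EP buffer, global Langmuir one-to-one fit of association and dissociation phases, KD derived from koff over kon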
Method: (§1) The binding of antibodies to purified recombinant human, cyno, rat, mouse, rabbit IL-17 and human IL-17A/F were determined by surface plasmon resonance-based measurements with a Biacore® 3000 instrument (Biacore® AB, Uppsala, Sweden) using running HBS-EP (10 mM HEPES [pH 7.4], 150 mM NaCl, 3 mM EDTA, and 0.005% surfactant P20) at 25° C. […] Approximately 5000 RU of goat anti-mouse or anti-human IgG (Fcγ) fragment specific polyclonal antibody (Pierce Biotechnology Inc, Rockford, Ill.) diluted in 10 mM sodium acetate (pH 4.5) was directly immobilized across a CM5 research grade biosensor chip using a standard amine coupling kit according to manufacturer's instructions and procedures at 25 μg/ml. Unreacted moieties on the biosensor surface were blocked with ethanolamine. Modified carboxymethyl dextran surface in flowcell 2 and 4 was used as a reaction surface. Unmodified carboxymethyl dextran without goat anti-mouse or anti-human IgG in flow cell 1 and 3 was used as the reference surface. For kinetic analysis, rate equations derived from the 1:1 Langmuir binding model were fitted simultaneously to association and dissociation phases of all eight injections (using global fit analysis) with the use of Biaevaluation 4.0.1 software. Purified antibodies were diluted in HEPES-buffered saline for capture across goat anti-mouse or anti-human IgG specific reaction surfaces. Antibodies to be captured as a ligand (25 μg/ml) were injected over reaction matrices at a flow rate of 5 μl/min. The association and dissociation rate constants, kon (unit M-1s-1) and koff (unit s-1) were determined under a continuous flow rate of 25 μl/min. Rate constants were derived by making kinetic binding measurements at ten different antigen concentrations ranging from 10 nM to 200 nM. The equilibrium dissociation constant (unit M) of the reaction between antibodies and recombinant purified IL-17 antigens was then calculated from the kinetic rate constants by the following formula: KD=koff/kon. Binding was recorded as a function of time and kinetic rate constants are calculated. In this assay, on-rates as fast as 10⁶ M⁻¹ s⁻¹ and off-rates as slow as 10⁻⁶ s⁻¹ can be measured.

[16] = target: T9, human IL-17A/F (human, UniProt Q16552 24-155; Q96PD4 31-163); assay: as above
T9 construct: Recombinant; biotinylated in the ELISA; also called hIL-17A/F; HuIL-17A/F
T9 sequence (Q16552 24-155, chain 1 of 2): as the sequence (Q16552 24-155 limits assumed) above
T9 sequence (Q96PD4 31-163, chain 2 of 2): as the sequence (Q96PD4 31-163 limits assumed, chain 2 of 2) above
Method: as §1

[17] = target: T7, cynomolgus monkey IL-17A; assay: as above
Method: as §1

[18] = target: T8, rat IL-17A; assay: as above
Method: as §1

[19] = target: T10, mouse IL-17A (mouse, UniProt Q62386 26-158, limits assumed); assay: as above
T10 construct: Purified recombinant protein in SPR; also called MuIL-17A; murine IL-17A
T10 sequence (looked up): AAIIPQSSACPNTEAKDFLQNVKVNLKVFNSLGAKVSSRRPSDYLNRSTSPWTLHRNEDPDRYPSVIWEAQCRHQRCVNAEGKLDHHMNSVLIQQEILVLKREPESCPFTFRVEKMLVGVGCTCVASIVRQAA
Method: as §1

T7 sequence (A0A2K5TTB0 entry or part of it): as the sequence (Q16552 24-155 limits assumed) above, with T3A, P8S, N34S, I77V, N78K, P104R counted along it
T3 sequence (A0A2K5TTB0 entry or part of it): as the sequence (Q16552 24-155 limits assumed) above, with T3A, P8S, N34S, I77V, N78K, P104R counted along it

B1: IL17-B6-5 (antibody, V domains shown)
VH: EVQLVQSGAEVKKPGESVKISCKASGGSFRSYGISWVRQAPGQGLEWMGGITHFFGITDYAQKFQGRVTITADESTTTAYMELSGLTSDDTAVYYCAREPNDFWNGYYDTHDFDSWGQGTTVTVSS
VL: EIVLTQSPDFQSVTPKEKVTITCRASQNIGSELHWYQQKPDQSPKLLIKYASHSISGVPSRFSGSGSGTDFTLTINGLEAEDAATYYCHQSDTLPHTFGQGTKVDIK
notes: also called pJP243 B6.1 #5VH / pJP244 B6.1 #5VK
- Potency (pM), IL-17-driven IL-6 production in HS27 cells [1]: 18 pM
- Potency (pM), IL-17-driven IL-6 production in HS27 cells [2]: 134 pM
- Potency (pM), IL-17-driven IL-6 production in HS27 cells [3]: 12 pM
- Potency (pM), IL-17 and TNF-induced IL-6 secretion from NIH3T3 cells [4]: 73 pM
- Potency (pM), IL-17 and TNF-induced IL-6 secretion from NIH3T3 cells [5]: 64 pM
- Potency (pM), IL-17 and TNF-induced IL-6 secretion from NIH3T3 cells [6]: 320 pM
- EC50 [7]: 0.22 nM

B2: IL17-B6-17 (antibody, V domains shown)
VH: EVQLVQSGAEVKKPGSSVKVSCKASGGSFGGYGIGWVRQAPGQGLEWMGGITPFFGFADYAQKFQGRVTITADESTTTAYMELSGLTSDDTAVYYCARDPNEFWNGYYSTHDFDSWGQGTTVTVSS
VL: EIVLTQSPDFQSVTPKEKVTITCRASQDIGSELHWYQQKPDQPPKLLIKYASHSTSGVPSRFSGSGSGTDFTLTINGLEAEDAGTYYCHQTDSLPYTFGPGTKVDIK
notes: also called pJP249 B6.1 #17VH / pJP252 B6.1 #17Vk
- Potency (pM), IL-17-driven IL-6 production in HS27 cells [1]: 15 pM
- Potency (pM), IL-17-driven IL-6 production in HS27 cells [2]: 137 pM
- Potency (pM), IL-17-driven IL-6 production in HS27 cells [3]: 11 pM
- Potency (pM), IL-17 and TNF-induced IL-6 secretion from NIH3T3 cells [4]: 111 pM
- Potency (pM), IL-17 and TNF-induced IL-6 secretion from NIH3T3 cells [5]: 69 pM
- Potency (pM), IL-17 and TNF-induced IL-6 secretion from NIH3T3 cells [6]: 232 pM
- EC50 [7]: 0.13 nM

B3: IL17-TN-L7-C8 (antibody, V domains shown)
VH: EVQLVQSGAEVKKPGASVKVSCKASGYTFSDFDIDWVRQATGLGLEWMGWMNPNSGNTGVAPKFRGRVSMTFNTAIRTAYLELSSLRPDDTAVYFCARSSESEGITIGFDNWGQGTLVTVSS
VL: SYELTQPPSVSVSPGQTASIPCSGDKLGNRYACWYKQKPGQPPVLVIYQDNKRPSGISERYSGSNYGDTATLTITGTQAMDEADYYCQTWDSTTGSYVFGTGTKVTVLG
notes: Fully human monoclonal antibody from mRNA display; also called IL-TN-L7-C8
- Potency (nM), IL-17-driven IL-6 production in HS27 cells [8]: 4.5 nM
- Potency (nM), IL-17-driven IL-6 production in HS27 cells [9]: 2.6 nM
- Potency (nM), IL-17-driven IL-6 production in HS27 cells [10]: 18 nM
- EC50 [7]: 0.517 nM

B4: IL17-TN-L7-G9 (antibody, V domains shown)
VH: EVQLLESGGGVVQPGRSLRLSCAASGFIFSNYGMHWVRQAPGKGLEWVAVISYDGSNKYYADSVKGRFTISRDNSKNTLYLEMNSLRPEDTAVYYCAKVGASGDYYYSYGLDVWGQGTTVTVSS
VL: QSGLTQPPSASGTPGQTVSISCSGSNSNIGSHSVNWYQQVPGAAPKLLMYGIGQRPSGVPDRFSVSQSGTSASLAISGLQSEDEADYYCATWDDSLGGYVFGSGTKVTVLG
notes: Fully human monoclonal antibody from mRNA display
- Potency (nM), IL-17-driven IL-6 production in HS27 cells [8]: 0.8 nM
- Potency (nM), IL-17-driven IL-6 production in HS27 cells [9]: 2 nM
- Potency (nM), IL-17-driven IL-6 production in HS27 cells [10]: 12 nM
- EC50 [7]: 0.165 nM

B5: IL17-TN-L7-A7 (antibody, V domains shown)
VH: EVQLLESGGGVVQPGTFLRLSCAATGFTFSAYGMHWVRQAPGRGLEWVAVTSYDGSNKYYADSVKGRFTISRDNSKNTLYLEMNSLRPEDTAVYYCAKVGASGDYYYSYGLDVWGQGTMVTVSS
VL: QSGLTQPPSASGTPGQTVSISCSGSNSNIGSHSVNWYQQVPGAAPKLLMYGIGQRPSGVPDRFSVSQSGTSASLAISGLQSEDEADYYCATWDDSLGGYVFGSGTKVTVLG
notes: as for B4
- Potency (nM), IL-17-driven IL-6 production in HS27 cells [8]: 1.8 nM
- Potency (nM), IL-17-driven IL-6 production in HS27 cells [9]: 1.8 nM
- Potency (nM), IL-17-driven IL-6 production in HS27 cells [10]: 12 nM
- EC50 [7]: 0.131 nM

B6: IL17-TN-K7-B6 (antibody, V domains shown)
VH: EVQLVQSGAEVKKPGESLKISCKASGGSFRSYGISWVRQAPGQGLEWMGGITPILGTANYAQKFQGRVTITADESTTTAYMELSGLTSDDTAVYYCAREPNDFWNGYYTTHHFDYWGQGTPVTVSS
VL: DVVMTQSPDFQSVTPKEKVTITCRASQNIGSALHWYQQKPDQSPKLLIKYASQSISGVPSRFSGSGSGTDFTLTINGLEAEDAGTYYCHQSTSLPHTFGQGTKLDIKR
notes: as for B4
- Potency (nM), IL-17-driven IL-6 production in HS27 cells [8]: 4.5 nM
- Potency (nM), IL-17-driven IL-6 production in HS27 cells [9]: 8.1 nM
- Potency (nM), IL-17-driven IL-6 production in HS27 cells [10]: 18 nM
- EC50 [7]: 0.447 nM

B7: IL17-h5C5.9 (antibody, V domains shown)
VH: EVQLVQSGAEVKKPGASVKVSCKASGYTFTDYEFHWVRQAPGQGLEWIGVIHPGNGGTAYNQNFRDRATLTADKSTSTAYMELSSLRSEDTAVYYCTRFLTYEGYFDYWGQGTLVTVSS
VL: DIQMTQSPSSLSASVGDRVTITCKASQSVSIDVGWFQQKPGKSPKLLIYHASNRYTGVPSRFSGSGSGTDFTFTISSLQPEDFATYFCQQDYSSPYTFGQGTKLEIKR
notes: IgG; constant regions not specified; also called h5C5.9 (VH.1b-Vk.1a)
- EC50 [11]: 0.03 nM
- Potency (pM), IL-17-driven IL-6 production in HS27 cells [12]: 14 pM
- Potency (pM), IL-17-driven IL-6 production in HS27 cells [13]: 19 pM
- Potency (pM), IL-17 and TNF-alpha-driven IL-6 production in NIH3T3 cells [14]: 5680 pM
- Kd [15]: 0.44 nM
- koff [15]: 0.000449 s⁻¹
- kon [15]: 1.02e+06 M⁻¹ s⁻¹
- Kd [16]: 1.21 nM
- koff [16]: 0.00115 s⁻¹
- kon [16]: 950000 M⁻¹ s⁻¹
- Kd [17]: 0.228 nM
- koff [17]: 0.000239 s⁻¹
- kon [17]: 1.05e+06 M⁻¹ s⁻¹
- Kd [18]: 8.48 nM
- koff [18]: 0.00958 s⁻¹
- kon [18]: 1.13e+06 M⁻¹ s⁻¹
- Kd [19]: 2.09 nM
- koff [19]: 0.000582 s⁻¹
- kon [19]: 279000 M⁻¹ s⁻¹

B8: IL17-h5C5.8 (antibody, V domains shown)
VH: EVQLVQSGAEVKKPGASVKVSCKASGYTFTDYEFHWVRQAPGQGLEWMGVIHPGNGGTAYNQNFRDRVTITADKSTSTAYMELSSLRSEDTAVYYCARFLTYEGYFDYWGQGTLVTVSS
VL: DIQMTQSPSSLSASVGDRVTITCKASQSVSIDVGWFQQKPGKSPKLLIYHASNRYTGVPSRFSGSGSGTDFTFTISSLQPEDFATYFCQQDYSSPYTFGQGTKLEIKR
notes: IgG; constant regions not specified; also called h5C5.8 (VH.1-Vk.1a)
- EC50 [11]: 0.07 nM
- Potency (pM), IL-17-driven IL-6 production in HS27 cells [12]: 17 pM
- Potency (pM), IL-17-driven IL-6 production in HS27 cells [13]: 20 pM
- Potency (pM), IL-17 and TNF-alpha-driven IL-6 production in NIH3T3 cells [14]: 13100 pM
- Kd [15]: 0.393 nM
- koff [15]: 0.000444 s⁻¹
- kon [15]: 1.13e+06 M⁻¹ s⁻¹
- Kd [16]: 1.28 nM
- koff [16]: 0.00121 s⁻¹
- kon [16]: 948000 M⁻¹ s⁻¹
- Kd [17]: 0.217 nM
- koff [17]: 0.000226 s⁻¹
- kon [17]: 1.04e+06 M⁻¹ s⁻¹
- Kd [18]: 14.2 nM
- koff [18]: 0.011 s⁻¹
- kon [18]: 774000 M⁻¹ s⁻¹
- Kd [19]: 1.86 nM
- koff [19]: 0.000531 s⁻¹
- kon [19]: 285000 M⁻¹ s⁻¹
